Data taken from patent US10533167.
Values belong to the substance of their own block, whether it stands above or below them.

Experiments:
Assay in all cases: cell-based or functional assay
[1] = target: FUSN-Cry2olig (N-terminal IDR of FUS fused to mCherry-labeled Cry2olig, Cry2 E490G) (human; Arabidopsis thaliana) (UniProt Q96524)
[2] = target: optoDDX4 (N-terminal IDR of Ddx4 fused to mCherry-labeled Cry2WT) (human; Arabidopsis thaliana) (UniProt Q96524)
[3] = target: optoFUS (N-terminal IDR of FUS fused to mCherry-labeled Cry2 PHR, Cry2WT) (human; Arabidopsis thaliana) (UniProt Q96524)

- saturation concentration for light-activated clustering, relative to optoFUS (fold lower than optoFUS) [1]: 5
Substance: FUSN-Cry2olig (N-terminal IDR of FUS fused to mCherry-labeled Cry2olig, Cry2 E490G) (from UniProt Q96524 1-498)

- saturation concentration (Csat) for light-activated phase separation, relative to optoFUS (fold lower than optoFUS) [2]: 2
Substance: optoDDX4 (N-terminal IDR of Ddx4 fused to mCherry-labeled Cry2WT) (from UniProt Q96524 1-498)

- saturation concentration (Csat) for light-activated phase separation in NIH 3T3 cells [3]: 1.4 µM
Substance: optoFUS (N-terminal IDR of FUS fused to mCherry-labeled Cry2 PHR, Cry2WT) (from UniProt Q96524 1-498)
